Reference: patent US20200369765A1 (INNATE PHARMA, published 2020)
Where a chain is given by its changes, count along the chain named.

B1: mAbA H1L1 (antibody, V domains shown)
VH: QVQLVQSGAEVKKPGSSVKVSCKASGGTFSSYWMHWVRQAPGQGLEWMGEINPSNGHTNYNEKFESRVTITADESTSTAYMELSSLRSEDTAVYYCANGVESYDFDDALDYWGQGTTVTVSS
VL: DIQMTQSPSSLSASVGDRVTITCRASQDINNYLNWYQQKPGKAPKLLIYYTSRLHSGVPSRFSGSGSGTDYTFTISSLQPEDIATYYCQQGNTLPFTFGGGTKVEIK
notes: constant region not specified
B2: mAbA H3L1 (antibody, V domains shown)
VH: B1 VH with G26Y, G27F, E74R
VL: B1 VL
notes: constant region not specified
B3: mAbA H3L2 (antibody, V domains shown)
VH: B1 VH with G26Y, G27F, E74R
VL: B1 VL with P44I
notes: constant region not specified
B4: mAbA H2L0 (antibody, V domains shown)
VH: B1 VH with G26Y, G27F
VL: B1 VL with Y71F
notes: constant region not specified
B5: mAbA H2L1 (antibody, V domains shown)
VH: B1 VH with G26Y, G27F
VL: B1 VL
notes: constant region not specified
B6: mAbA H0L1 (antibody, V domains shown)
VH: B1 VH with N98R
VL: B1 VL
notes: constant region not specified
B7: mAbA H3L0 (antibody, V domains shown)
VH: B1 VH with G26Y, G27F, E74R
VL: B1 VL with Y71F
notes: constant region not specified
B8: mAbA H2L2 (antibody, V domains shown)
VH: B1 VH with G26Y, G27F
VL: B1 VL with P44I
notes: constant region not specified
B9: mAbA H0L2 (antibody, V domains shown)
VH: B1 VH with N98R
VL: B1 VL with P44I
notes: constant region not specified
B10: mAbA H0L0 (antibody, V domains shown)
VH: B1 VH with N98R
VL: B1 VL with Y71F
notes: constant region not specified
B11: mAbA H1L2 (antibody, V domains shown)
VH: B1 VH
VL: B1 VL with P44I
notes: constant region not specified
B12: mAbA H1L0 (antibody, V domains shown)
VH: B1 VH
VL: B1 VL with Y71F
notes: constant region not specified
B13: mAbD H1L1 (antibody, V domains shown)
VH: QVQLVQSGSELKKPGASVKVSCKASGYTFTDYSMHWVRQAPGQGLKWMGWIITETGEPTYADDFRGRFVFSLDTSVSTAYLQISSLKAEDTAVYYCARDFDGYWGQGTTVTVSS
VL: DIQMTQSPSSLSASVGDRVTITCRASENIYSYLAWYQQKPGKAPKFLIYNAKTLTEGVPSRFSGSGSGTDFTLTISSLQPEDFATYYCQHHYGFPWTFGGGTKVEIK
notes: constant region not specified
B14: mAbD H1L0 (antibody, V domains shown)
VH: B13 VH
VL: B13 VL with F46L
notes: constant region not specified
B15: mAbD H0L1 (antibody, V domains shown)
VH: B13 VH with K46E
VL: B13 VL
notes: constant region not specified
B16: mAbD H0L0 (antibody, V domains shown)
VH: B13 VH with K46E
VL: B13 VL with F46L
notes: constant region not specified
B17: mAbD H0L2 (antibody, V domains shown)
VH: B13 VH with K46E
VL: B13 VL with S63R
notes: constant region not specified

Target: T1, Human Siglec-9 (human, UniProt Q9Y336 18-463)
T1 construct: On transfected CHO cells; also on YTS and KHYG-1 transfectants, primary NK cells and moDC; also called huSiglec-9; CD329
Test: flow cytometry, CHO Siglec-9 cells, mean n = 2
Description: Binding of humanized antibodies was tested on CHO cells transfected with human Siglec-9, in a titration experiment by flow cytometry. Cells were incubated 90 minutes at 37° C. in Staining Buffer (SB) with primary antibodies at 10 ug/ml and a series of dilution of 1:10. They were washed three times with SB, then incubated 30 minutes with a goat F(ab′)² Anti-human IgG (Fc) PE. EC₅₀ values (μg/ml) for Siglec-9 expressing cells are shown below.

T1 sequence (Q9Y336 18-463): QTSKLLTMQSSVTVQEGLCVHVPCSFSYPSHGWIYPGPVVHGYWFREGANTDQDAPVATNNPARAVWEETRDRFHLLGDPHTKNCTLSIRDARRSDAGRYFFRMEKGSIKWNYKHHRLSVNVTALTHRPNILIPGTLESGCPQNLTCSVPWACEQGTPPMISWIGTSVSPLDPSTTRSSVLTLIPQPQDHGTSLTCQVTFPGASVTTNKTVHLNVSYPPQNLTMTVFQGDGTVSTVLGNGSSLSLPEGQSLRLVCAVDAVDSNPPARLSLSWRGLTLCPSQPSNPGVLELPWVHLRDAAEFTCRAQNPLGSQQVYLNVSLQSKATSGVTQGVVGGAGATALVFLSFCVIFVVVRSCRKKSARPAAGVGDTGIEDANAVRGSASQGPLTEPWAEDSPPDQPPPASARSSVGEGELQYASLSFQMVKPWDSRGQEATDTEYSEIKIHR

Row | EC50 [µg/mL] | Binder
1 | 0.033 | B1
2 | 0.044 | B2
3 | 0.074 | B3
4 | 0.034 | B4
5 | 0.029 | B5
6 | 0.013 | B6
7 | 0.12 | B7
8 | 0.032 | B8
9 | 0.034 | B9
10 | 0.04 | B10
11 | 0.037 | B11
12 | 0.045 | B12
13 | 0.015 | B13
14 | 0.019 | B14
15 | 0.01 | B15
16 | 0.019 | B16
17 | 0.02 | B17
